Data published in patent US20040137592.

How the values were obtained:
[1] = target: MBP fusion protein of the hUpf1/SMG-2 partial fragment at the C-terminal side (UniProt Q92900)
[2] = target: MBP fusion protein of the hUpf1/SMG-2 partial fragment at the N-terminal side (UniProt Q92900)
[3] = test system: fusion protein of the 14mer peptide (control) including S15 in the p53 protein and GST [GST: P08515]
[4] = test system: hUpf1/SMG-2 fusion protein (S1096) [GST: P08515]
HA tagged hUpf1/SMG-2 = HA tagged hUpf1/SMG-2 (UniProt Q92900)
[5] = test system: GST fusion protein including S1078 (14mer peptide of hUpf1/SMG-2) [GST: P08515]

## 6H-hSMG-1 (fusion protein of human SMG-1 partial fragment 107-3657 and His tag)
[1]
  phosphorylation of substrate (in vitro kinase assay, 32P autoradiography): the fragments of hUpf1/SMG-2 at the C-terminal side and at the N-terminal side performed the role of good substrates for hSMG-1
[2]
  phosphorylation of substrate (in vitro kinase assay, 32P autoradiography): the fragments of hUpf1/SMG-2 at the C-terminal side and at the N-terminal side performed the role of good substrates for hSMG-1
[3]
  phosphorylation of substrate (in vitro kinase assay, 32P autoradiography): the control construct encoding the SQ motif in the p53 protein was phosphorylated by hSMG-1
[4]
  phosphorylation of substrate (in vitro kinase assay, 32P autoradiography): the GST fusion protein including S1078 or the GST fusion protein including S1096 ... was efficiently phosphorylated by 6H-hSMG-1
HA tagged hUpf1/SMG-2
  phosphorylation of substrate (in vitro kinase assay, 32P autoradiography): purified 6H-hSMG-1 phosphorylated HA-hUpf1/SMG-2
[5]
  phosphorylation of substrate (in vitro kinase assay, 32P autoradiography): the GST fusion protein including S1078 or the GST fusion protein including S1096 ... was efficiently phosphorylated by 6H-hSMG-1
